B1: VHH54 displayed on S. aureus RN4220 (VHH)
VHH: QVQLQESGGGLVQAGGSLRLSCAASGRTLSSYAMGWFRQAPGKERELVSAISWSGLSTYYEDSVKGRFTISRDNAKNTMYLQMNSLKPEDTAIYYCAADIGWPLRADSGSWGQGTQVTVSS
notes: also called anti-NP-VHH2
B2: VHH52 displayed on S. aureus RN4220 (VHH)
VHH: QVQLQESGGGLVQAGGSLRLTCALSERTSTSYAQGWFRQPPGKEREFVASLRTHDGNTHYTDSVKGRFTISRDNAENTLYLQMNSLKTEDTAVYYCAASLGYSGAYASGYDYWGQGTQVTVSS
notes: also called anti-NP-VHH1
B3: VHH62 displayed on S. aureus RN4220 (VHH)
VHH: QVQLVESGGGLVQPGGSLRLSCAASGFTLDGYAIGWFRQAPGKEREGVSCISSSGKSTNYADSVKGRFTISRDNQQNTVYLQMNSLKPEDTAVYYCAATVGLFCVGGTYGMDYWGKGTLVKMSS
notes: also called anti-NP-VHH3
B4: VHH52.1 displayed on S. aureus RN4220 (VHH)
VHH: QLQLVESGGGLVQAGGSLRLSCAASGSTFSNYAMGWFRQAPGKEREFVASIRWIGGSTRYADSVKGRFTTSRDNAKNALYLQMNSLKTEDTAVYYCAASLGYSASYASGYDYWGQGTQVTVSS
notes: also called anti-NP-VHH6
B5: VHH54.1 displayed on S. aureus RN4220 (VHH)
VHH: QVQLVESGGGLVQAGASLRLSCATSGRTLSGYAMGWFRQAPGKERELTAAISWSGISTYYTDSVKGRFTISRDNAKNTVYLQMNSLNSEDTGVYYCVADVGWPLRADRGSWGQGTQVTISS
notes: also called anti-NP-VHH4
B6: C8 displayed on S. aureus RN4220 (VHH)
VHH: QVHSWSLGGGLVQSGGSLTLSCAASGFTFTNAYMSWVRQGPGKEPEWVSGINARGVGTRYADFVKGRFTISRDNAKTILYLQMNSLKPEDTALYYCASDFGPSGGRWDPPRRRGQGTWVTVSS
B7: D4 displayed on S. aureus RN4220 (VHH)
VHH: QLQLVETGGGLVQSGGSLRLSCAASGFTLGSYAIGWYRQAPGKERERVSCISSSGISTNYADPVKGRFTISRDNAKNTVYLQMDSLKPEDTAVYYCAADSFFCLGPNMDYWGKGTLVIVSS
notes: also called anti-NP-VHH5

The binders below were run against influenza A virus nucleoprotein (NP), strain A/WSN/33, from infected MDCK cells (Influenza A virus A/WSN/1933 (H1N1), [35S]Met/Cys radiolabel) (assay: pull-down). Conditions: partners not purified.
Chain of influenza A virus nucleoprotein (NP), strain A/WSN/33, from infected MDCK cells (Influenza A virus A/WSN/1933 (H1N1), [35S]Met/Cys radiolabel) (P15682 whole entry): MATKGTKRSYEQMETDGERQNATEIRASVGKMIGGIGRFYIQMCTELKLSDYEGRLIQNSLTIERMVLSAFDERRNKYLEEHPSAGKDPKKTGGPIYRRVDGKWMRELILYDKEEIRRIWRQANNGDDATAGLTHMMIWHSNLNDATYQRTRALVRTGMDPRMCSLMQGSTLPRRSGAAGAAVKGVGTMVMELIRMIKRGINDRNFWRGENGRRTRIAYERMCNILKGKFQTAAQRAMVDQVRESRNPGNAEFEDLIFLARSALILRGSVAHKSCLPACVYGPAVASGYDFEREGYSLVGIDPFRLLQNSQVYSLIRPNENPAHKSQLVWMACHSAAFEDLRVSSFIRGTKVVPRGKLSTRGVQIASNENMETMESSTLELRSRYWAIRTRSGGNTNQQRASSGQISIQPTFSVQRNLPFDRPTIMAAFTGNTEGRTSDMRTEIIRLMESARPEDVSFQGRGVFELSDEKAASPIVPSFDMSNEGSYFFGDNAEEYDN

Row | Binder | binding result
1 | B1 | binds
2 | B2 | binds
3 | B3 | binds
4 | B4 | binds
5 | B5 | binds
6 | B6 | binds
7 | B7 | binds
